Measured values: paper PMC4256095

Target: actin (UniProt P68135)
Test: other fluorescence titration

recombinant human cofilin, sequence (P23528 whole entry): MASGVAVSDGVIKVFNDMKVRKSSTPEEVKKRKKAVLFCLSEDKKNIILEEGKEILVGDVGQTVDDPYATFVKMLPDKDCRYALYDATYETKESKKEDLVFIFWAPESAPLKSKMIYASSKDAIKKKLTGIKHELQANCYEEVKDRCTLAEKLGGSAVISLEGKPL

binding density (νcof) at 3 µM cofilin: > 0.9
Substance: recombinant human cofilin (from UniProt P23528 1-166) (natural protein)
